This data set concerns Saccharomyces cerevisiae. Description: transcriptional activation domain activity (GFP:mCherry ratio, weighted mean of sorted bins, harmonized to initial dataset scale) (arbitrary fluorescence ratio units); higher = stronger transcriptional activation. The note with it: beta-estradiol 1 µM; induction time 4 h. The essentials:
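After a 1:5 dilution into SC with 1 uM beta-estradiol and 4 hours at 30 °C, yeast diploids carrying a GFP reporter and URA3-integrated barcoded tiles were sorted into 8 bins by GFP:mCherry ratio. The tiles were fused to an estradiol-inducible synthetic transcription factor. Barcodes were sequenced, tiles below 50 reads were discarded, and activation activity was taken as the read-weighted mean of bin median fluorescence, averaged across barcodes and linearly mapped onto the initial dataset scale.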
Regarding “FLSGWPLVLGKFGFDPKFNSCWYLNQDDRLTLIWLWCTFYFWVVASVIYSLLV”, the “transcriptional activation domain activity” value was 62300.

For “ILNITPYAAGQFGYYYGTCWFNDPRPDVQFRWLLGSQSVWILLMSTGEVVFFF”, the “transcriptional activation domain activity” value was less than 6570.

“RKAEEEEEEEAEAKAEKKKPAHGVPFEGTSKSARARARKRAKKEAEAAAATPA”: the “transcriptional activation domain activity” value came out at 17800.

Turning to “EQVAPKFWKHGLFWAMCNEGMWLKELEFYYMINYYFKYLELLDTVFLALKKKP”, the “transcriptional activation domain activity” value stood at 40200.

Consider “TFLLLPIFVCPHPNLLFGLGFSLILHACLRQIFLSSLVICVFLSLLVIYMLYV”, for which the “transcriptional activation domain activity” value came out at 50900.

Take “VSYVLFVLMHRSTQPLVQHLLFKLRWLPFPFFITKHYYSWIISAYSFIGYRNL”: the “transcriptional activation domain activity” value was found to be 56400.

“SWNAPSLTNSWDSPPGNRTGAVTIGDESINGSEMPDFSLDLVSNDRQTGLEAL”: the “transcriptional activation domain activity” value stood at 32800.

With “GVFILCRKRIVYMDGWRVWGVLIFRLFTWLFLGWLKIARGLGLGPALMMFLWL”, the “transcriptional activation domain activity” value amounted to 46200.

Turning to “DLLEDDGQPSSATQKSMKRANRKRQSQKNRIVHLLNRTRRALGVSRAALILLL”, the “transcriptional activation domain activity” value was 57500.

“SSNGEEQSINNKNDIDDNSAYRRNNFRNSSNSGSHTFQLSDLDLDVDMRMDSA”: the “transcriptional activation domain activity” value was 41100.

Regarding “TWPYSSLSELEDLMDRFKRMLTLLRMHLKHVAELEVMVTLWKYMGVLLEFLGS”, the “transcriptional activation domain activity” value came out at 61800.

“IARADRTSPNDGGVALKKHVVVFASRPGLGLLIAAYLHKNLRSDWNIQLILGC”: the “transcriptional activation domain activity” value was determined as 66700.

For the sequence “MVCRDILHFWWMFISLNANAEDIIISRSSSWLSSPLLVCFLVVCNVVCVYFYI”, the “transcriptional activation domain activity” value came to 72800.

With “KKASSSAVGEGKKKSASKPRTSSAGGASVDGQPKKPKQSKKKAASGSKGGAGS”, the “transcriptional activation domain activity” value turned out to be 28500.

Regarding “LVPWRPQKVLWLKVFYLLTRYLAFVDIPINLYSYLGFGISLPACQVLFSWYCW”, the “transcriptional activation domain activity” value was determined as 56100.

As for “VKGGGDSRKVKGAESGQSGSGSGKQSGSRRRAVSSSRTRGSKEPDASIKSNGT”, the “transcriptional activation domain activity” value turned out to be 35100.

For the sequence “SKWEVANKKTRDEASKGGGGKGGGGGKGGKAGEGGKEKRSEKKAAAKEGGKKK”, the “transcriptional activation domain activity” value came to 39600.

As for “KQYCVRPNSGRIESGKEVEVQVLLQAMKNDPPADYKCRDKFLVQSVAITADRE”, the “transcriptional activation domain activity” value was 53400.

For “PCKCHTKRKSSRKSKGGSCHRRANDEAAHVNGLGIADLDVLLGLNGRSSDVDM”, the “transcriptional activation domain activity” value came out at 44000.

In the case of “RADHARRKSPARSRSASASSRSSSRSRSGSRGSDQANRRRRAASPGAQGDGRK”, the “transcriptional activation domain activity” value amounted to 39900.

Turning to “ELSHPSALFCYILFRLFPIFMYLFGHLVLMLVTQESWFILYFIVLILLVAADF”, the “transcriptional activation domain activity” value was determined as 60500.

“NFDWWAKYNCESLRDAVIGFLTRDCLDSRVGYFRSVVRWIGCRLYFGLLIIFF”: the “transcriptional activation domain activity” value came out at 72700.

With “TAPAPEAAAEPAPAAEAEAPAAETAEAPKEEAKDEKKPEKEKKVSRRLSSRVT”, the “transcriptional activation domain activity” value is 32400.

“PAEGAEDAGEVKKKHRKRRRKRRGDAKDAAAEGGDEPENEDGEVGEGDNAAVS”: the “transcriptional activation domain activity” value is 9150.

Turning to “KGGEKKEGEEQNGGGEKKGGEEQKGGGEKKGRWVEEKGGEEQKGGAIAAAGQN”, the “transcriptional activation domain activity” value worked out at 14200.

Regarding “RTPTYDRRTIIQGLQQAEMNLDNSFKRVSEMILMLMIRMHDWSTLRRRFQMDQ”, the “transcriptional activation domain activity” value was determined as 45200.

As to “GRRRDNGGRRQGGGRRDGGGGGGGGGGRGRGERGGGGGERGERGGGARPKKTQ”, the “transcriptional activation domain activity” value turned out to be 34900.

With “CNICVLLCQIIEVASLVEQRDTIELIKTRYLNRLKLMKPDDVLQTYVSTLLNA”, the “transcriptional activation domain activity” value amounted to 32400.

As to “HHLRLHWFADVLNYRARDTLFSILRIVSHIRSLRLFAVYLLRWERQRHEAKTV”, the “transcriptional activation domain activity” value came to 49800.

For the sequence “ADIICMIYLIVNYTLLVFVSEVPYHQRARICLRLFCSCNFVTNFYATSAIVYR”, the “transcriptional activation domain activity” value was found to be 51100.

In the case of “VCVANIFVVFSLYSYTWIQAVVISLSILVYYAFIAIYAQFNTFLFAGQIRLFG”, the “transcriptional activation domain activity” value was found to be 70400.

On to “FLLTVYHIELLRNKSGDCSFMLRYFMNQGVNNSSLSTCMEHVAEAVVSTFINE”, for which the “transcriptional activation domain activity” value worked out at 30600.

As for “VPWSRSGHAIDLRFVRSFVAALVFLLLLLFLLLLLLLLLLLLLLLFLLFFFVF”, the “transcriptional activation domain activity” value came out at 37200.

Take “MPLVRRLGAGGDRGAGTVRVRVATSSHTPHHLKVVVLSKVPFLLPDIVVDRMQ”: the “transcriptional activation domain activity” value was found to be 12900.

For “MIFFLPLVFTSFFFIFFYMYYTVWTLHLSFVKSLEACMNPWIWELYGSTFIHL”, the “transcriptional activation domain activity” value turned out to be 60000.

Consider “FFFFPFLSLLFFFFPFLLSLLSSSLLLAAFSCFCFLPSLTPLPLSSSSSSPLF”, for which the “transcriptional activation domain activity” value came out at 34900.

Turning to “MHSDMYLHPTLLSFLSVQFSMGFLFFLCRRYLYFSEWLLVVLCVFVSRFIGFI”, the “transcriptional activation domain activity” value worked out at 38400.

The values are drawn from the supplement of paper PMC12636428.
